The target in assay [1] is T1, human follicle-stimulating hormone receptor (FSHR) (human, UniProt P23945 18-695).
T1 construct: whole, on cells; also called huFSHR; hFSHR
T1 sequence (looked up): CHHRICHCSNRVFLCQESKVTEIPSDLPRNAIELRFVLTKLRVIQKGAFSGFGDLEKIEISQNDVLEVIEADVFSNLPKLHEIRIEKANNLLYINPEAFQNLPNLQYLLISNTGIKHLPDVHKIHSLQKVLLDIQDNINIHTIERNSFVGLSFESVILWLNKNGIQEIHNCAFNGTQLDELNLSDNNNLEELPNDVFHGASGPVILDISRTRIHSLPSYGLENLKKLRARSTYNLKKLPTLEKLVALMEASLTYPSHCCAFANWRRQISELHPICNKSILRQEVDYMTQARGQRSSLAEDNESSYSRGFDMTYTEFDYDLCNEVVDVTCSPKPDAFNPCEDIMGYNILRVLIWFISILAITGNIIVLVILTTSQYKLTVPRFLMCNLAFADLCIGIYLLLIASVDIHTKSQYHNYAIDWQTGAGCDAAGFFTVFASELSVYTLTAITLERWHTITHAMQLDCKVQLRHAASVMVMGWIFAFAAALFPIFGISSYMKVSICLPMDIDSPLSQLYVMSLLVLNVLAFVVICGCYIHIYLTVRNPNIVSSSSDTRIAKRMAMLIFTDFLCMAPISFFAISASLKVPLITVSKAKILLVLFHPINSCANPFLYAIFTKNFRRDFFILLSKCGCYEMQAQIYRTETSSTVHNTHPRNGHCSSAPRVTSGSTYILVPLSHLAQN
Kind of assay: FACS on huFSHR L-cells, 4-fold serial dilutions, goat anti-mouse IgG-APC detection. The method, then: (§1) In order to characterize and to check whether the IgGs anti human FSHR retain specificity for huFSHR and whether they bind to this receptor with higher affinity than known antibody, a binding FACS experiment using different IgGs (MABs) concentrations and huFSHR-L-cell and WT L-cells was performed. These cells were QCed for huFSHR expression.
(§2) The HuFSHR L-cells were prepared as previously described [Vannier et al 1996 [15]. Briefly, mouse L cells were co-transfected, using the calcium phosphate precipitate method, with the plasmid encoding the hFSHR (pSG5-hFSHR) and with the plasmid pSV-Neo, a vector which confers resistance to the antibiotic G 418. Neomycin-resistant cells were selected in DMEM supplemented with 10% fetal calf serum and G 418 (geneticin, SIGMA-ALDRICH®) (1 mg/mL). […] The transfected cells were maintained in medium containing G 418 (200 ig/mL) for further studies. The samples were 4-fold serial dilution of monoclonal antibodies and buffer: FACS buffer (1×PBS containing 0.4 g/l human albumin, pH 7.4).
(§3) 100 μl/well of goat anti-mouse IgG conjugated to APC (GAM-APC) (BD™ Bioscience, 1:500 dilution) was added to the cells and incubated for 30 min at 4° C., gently shaking

Assay [2] addresses T1, human follicle-stimulating hormone …. As to the kind of experiment: immunofluorescence microscopy on fixed FSHR-L-cells. The method, then:
FSHR-L-cells and wild type L-cells were cultured at 37° C. on LabTeck 8-wells (10,000 cells/well) in DMEM containing 10% horse serum, 1 mM glutamine, 1 mM pyruvate in presence of 5% CO₂. When reached 70% confluence, the cells were washed with PBS (three times) and fixed with 4% paraformaldehyde in PBS (15 min at room temperature (RT)). The free aldehyde groups were quenched with 100 mM NH₄Cl in PBS for 15 min at RT (i.e. 20° C.). To block the nonspecific binding of antibodies the cells were incubated 1 hour at RT (i.e. 20° C.) with PBS (pH=7.4) containing 2% goat serum (blocking buffer). FSHR was detected by incubating cells with serial dilutions of the monoclonal primary antibodies 1, 2, 3, 4, and 5 (3 μg/ml−1 μg/ml—0.3 μg/ml−0.1 μg/ml, 0.03 μg/ml, and 0.01 μg/ml of blocking buffer) overnight at 4° C. and with goat anti-mouse IgG-Alexa 555 (Invitrogen #A21137; dilution 1:1000 in blocking buffer) for 1 hour at room temperature. The known FSHR323 antibody (INSERM-Transfert, Paris) was used as a positive IgG2a control (3 μg/ml) as previously described in Radu et al. 2010 [9]. The cell nuclei were detected by incubating cells for 10 min with DAPI (SIGMA-ALDRICH®#32670; dilution 1:1000 in PBS). The slides were mounted in Dako fluorescent mounting medium containing 15 mM sodium azide and examined with an Olympus microscope.

Assay [3] has the same target. As to the kind of experiment: FACS on huFSHR L-cells; this end is tied to antibody 1 by Table 2 (1.582/0.2112). The method, then:
as §1, §2, §3

For assay [4] the target is unchanged. Kind of assay: FACS on huFSHR L-cells; this end is tied to antibody 2 by Table 2 (1.582/0.08678). The method, then: as §1, §2, §3
Assay [5] has the same target. Kind of assay: peroxidase immunohistochemistry on paraffin sections of human testis; this end is tied to antibody 4 by the example in the sentence (0.2 against 5 µg/ml). The method, then:
Immunohistochemistry: Serial 3-μm-thick sections of human testis tissue (n=30 sections) were cut, attached to SuperFrost slides, deparaffinized with xylene, […] gradually in ethanol and washed with running tap water for 60 min. Access to tissue antigen sites for antibody attachment was enhanced by incubating slides at 90° C. for 40 min with 10 mM citrate buffer, pH 6. After cooling at room temperature (RT) for 20 min, and after each subsequent step, slides were rinsed with PBS. To block endogenous peroxidase activity, the sections were incubated with 6% hydrogen peroxide (15 min at RT, i.e. 20° C.). Sodium borohydride (10 mg/ml PBS) was used to quench free aldehyde groups (15 min, RT i.e. 20° C.). Non-specific binding of antibodies was blocked by incubating slides with 2% goat serum in Phosphate Buffer Saline (PBS) (blocking buffer) at 20° C. (RT) for 2 h. The slides were incubated with serial dilutions of the monoclonal primary antibodies 4, 2, 3 (5 μg/ml−1 μg/ml−0.2 μg/ml−0.04 μg/ml of blocking buffer) in blocking buffer overnight at 4° C. The known FSHR323 antibody (INSERM-Transfert, Paris) was used as a positive IgG2a control. […] The biotinylated goat anti-mouse IgG (Fc-specific) antibody (dilution 1:200), used as secondary antibody, was detected by using streptavidin coupled to horseradish peroxidase (dilution 1:500). […]

B1: mouse IgG2a anti human FSHR antibody 3 (VH CDR1 of SEQ ID NO 3, VH CDR2 of SEQ ID NO 8) (antibody, V domains shown)
VH: QVQLQQSGAELMKPGASVKISCKATGYTFSKQWLLWVKQRPGHGLEWIGEIFPRNGNTNYNEKFKGKATFTADTSSSTAYMQLSSLTSEDSAVYYCARGPTASGYAMDYWGQGTSVTVSS
VL: DVLMTQTPLSLPVSLGDQASISCRSSQSIVHRNGNTYLEWYLQKPGQSPKLLIYKVSNRFSGVPDRFSGSGSGTDFTLKIIRVEAEDLGVYYCFQGSHVPFTFGSGTKLEIK
notes: Mouse IgG2a heavy constant domains and mouse C kappa; also called sample 3; mouse IgG2 FSHR323 variant
As usually defined, the EC50 is the midpoint of the concentration-response curve. Low readings indicate an effect from little substance, high ones a need for much substance. B1 yielded an EC50 in assay [1] of 0.0893 nM. In addition, the “fold lower labelling concentration than the optimal concentration of FSHR323” value in assay [2] came to 33 fold.

B2: mouse IgG2a anti human FSHR antibody 1 (VH CDR1 of SEQ ID NO 1, VH CDR2 of SEQ ID NO 6) (antibody, V domains shown)
VH: QVQLQQSGAELMKPGASVKISCKATGYTFSQFYVGWVKQRPGHGLEWIGEIFPRTGNTNYNEKFKGKATFTADTSSSTAYMQLSSLTSEDSAVYYCARGPTASGYAMDYWGQGTSVTVSS
VL: DVLMTQTPLSLPVSLGDQASISCRSSQSIVHRNGNTYLEWYLQKPGQSPKLLIYKVSNRFSGVPDRFSGSGSGTDFTLKIIRVEAEDLGVYYCFQGSHVPFTFGSGTKLEIK
notes: VH was cloned in frame with mouse IgG2a heavy constant domains and the V kappa with mouse C kappa; also called sample 1; mouse IgG2 FSHR323 variant
B2 returned an EC50 in assay [1] of 0.211 nM. Also, the “fold lower labelling concentration than the optimal concentration of FSHR323” value in assay [2] stood at 33 fold. The “fold improvement of EC50 against the known antibody” value in assay [3] was 7.5 fold.

B3: mouse IgG2a anti human FSHR antibody 2 (VH CDR1 of SEQ ID NO 2, VH CDR2 of SEQ ID NO 7) (antibody, V domains shown)
VH: QVQLQQSGAELMKPGASVKISCKATGYTFSRQWVIWVKQRPGHGLEWIGEILPRNGNTNYNEKFKGKATFTADTSSSTAYMQLSSLTSEDSAVYYCARGPTASGYAMDYWGQGTSVTVSS
VL: DVLMTQTPLSLPVSLGDQASISCRSSQSIVHRNGNTYLEWYLQKPGQSPKLLIYKVSNRFSGVPDRFSGSGSGTDFTLKIIRVEAEDLGVYYCFQGSHVPFTFGSGTKLEIK
notes: Mouse IgG2a heavy constant domains and mouse C kappa; also called sample 2; mouse IgG2 FSHR323 variant
For B3, in assay [1], the response was half-maximal at 0.0868 nM (EC50). Also, the “fold lower labelling concentration than the optimal concentration of FSHR323” value in assay [2] worked out at 33 fold. Besides, in assay [4], the “fold improvement of EC50 against the known antibody” value was found to be 18.2 fold.

B4: mouse IgG2a anti human FSHR antibody 4 (VH CDR1 of SEQ ID NO 4, VH CDR2 of SEQ ID NO 9) (antibody, V domains shown)
VH: QVQLQQSGAELMKPGASVKISCKATGYTFSRSWILWVKQRPGHGLEWIGEIYPQNQNTNYNEKFKGKATFTADTSSSTAYMQLSSLTSEDSAVYYCARGPTASGYAMDYWGQGTSVTVSS
VL: DVLMTQTPLSLPVSLGDQASISCRSSQSIVHRNGNTYLEWYLQKPGQSPKLLIYKVSNRFSGVPDRFSGSGSGTDFTLKIIRVEAEDLGVYYCFQGSHVPFTFGSGTKLEIK
notes: Mouse IgG2a heavy constant domains and mouse C kappa; also called sample 4; mouse IgG2 FSHR323 variant
B4 displayed an EC50 in assay [1] of 0.098 nM. In assay [2], the “fold lower labelling concentration than the optimal concentration of FSHR323” value was 33 fold. The “fold higher affinity than FSHR323 (by optimal IHC dilution)” value in assay [5] worked out at 25 fold.

B5: mouse IgG2a anti human FSHR antibody 5 (VH CDR1 of SEQ ID NO 5, VH CDR2 of SEQ ID NO 10) (antibody, V domains shown)
VH: QVQLQQSGAELMKPGASVKISCKATGYTFSKYWTQWVKQRPGHGLEWIGEIYPRNGNTNYNEKFKGKATFTADTSSSTAYMQLSSLTSEDSAVYYCARGPTASGYAMDYWGQGTSVTVSS
VL: DVLMTQTPLSLPVSLGDQASISCRSSQSIVHRNGNTYLEWYLQKPGQSPKLLIYKVSNRFSGVPDRFSGSGSGTDFTLKIIRVEAEDLGVYYCFQGSHVPFTFGSGTKLEIK
notes: Mouse IgG2a heavy constant domains and mouse C kappa; also called sample 5; mouse IgG2 FSHR323 variant
As for B5, in assay [1], the midpoint of the response, the EC50, lay at 0.101 nM. Moreover, the “fold lower labelling concentration than the optimal concentration of FSHR323” value in assay [2] is 33 fold.

The values are drawn from patent US20210130481A1 (INSERM INSTITUT NATIONAL DE LA SANTE ET DE LA RECHERCHE …, published 2021).
